The target in test [1] is D3H44 light chain Q38E_Q124E_Q160E_T180E. Kind of test: LCCA, SPR tag readout, L1:L2 DNA 1:9 normalized to 1:1; competitor m26.
The target of test [2] is D3H44 light chain Q38R_Q124R_Q160K_T178R. Description: LCCA, SPR tag readout, L1:L2 DNA 1:9 normalized to 1:1; competitor m19.
Test [3] concerns the target D3H44 light chain Q38E_Q124E_Q160E_T180E. Description: LCCA, SPR tag readout, L1:L2 DNA 1:3 normalized to 1:1; competitor m26.
The target in test [4] is D3H44 light chain Q38R_Q124R_Q160K_T178R. Kind of test: LCCA, SPR tag readout, L1:L2 DNA 1:3 normalized to 1:1; competitor m19.
Test [5] has as its target D3H44 Fab heavy chain L124R_Q179K, C-terminal ABD2-His6 tag. Description: LCCA set 9388 (co-expression; SPR read-out of light-chain tags; L1:L2 DNA 1:3, normalized to 1:1); competing light chain m9.
Test [6] addresses D3H44 Fab heavy chain L124E_L143E_K145T, C-terminal ABD2-His6 tag. Description: LCCA set 9298 (co-expression; SPR read-out of light-chain tags; L1:L2 DNA 1:3, normalized to 1:1); competing light chain m10.
The target of test [7] is D3H44 Fab heavy chain L124E_L143E_K145M, C-terminal ABD2-His6 tag. Kind of test: LCCA co-expression, SPR tag read-out; DNA 1:3 norm. to 1:1; competing light chain m7.
Test [8] addresses D3H44 Fab heavy chain L124E_L143E_K145T, C-terminal ABD2-His6 tag. The test is described as above.
For test [9], the target named is D3H44 Fab heavy chain L124R_Q179K, C-terminal ABD2-His6 tag. The description is as above.
Test [10] addresses D3H44 Fab heavy chain L124R_D146N_Q179K, C-terminal ABD2-His6 tag. Description: LCCA set 9350 (co-expression; SPR read-out of light-chain tags; L1:L2 DNA 1:3, normalized to 1:1); competing light chain m12.
Test [11] concerns the target D3H44 Fab heavy chain L124E_L143E_K145M, C-terminal ABD2-His6 tag. Kind of test: LCCA set 9266 (co-expression; SPR read-out of light-chain tags; L1:L2 DNA 1:3, normalized to 1:1); competing light chain m9.
The target of test [12] is D3H44 Fab heavy chain L124E_L143E_K145T, C-terminal ABD2-His6 tag. Kind of test: LCCA set 9271 (co-expression; SPR read-out of light-chain tags; L1:L2 DNA 1:3, normalized to 1:1); competing light chain m12.
The target in test [13] is D3H44 Fab heavy chain L124R_Q179K, C-terminal ABD2-His6 tag. Kind of test: LCCA set 9384 (co-expression; SPR read-out of light-chain tags; L1:L2 DNA 1:3, normalized to 1:1); competing light chain m10.
Test [14] concerns the target D3H44 Fab heavy chain L124E_L143D_K145M, C-terminal ABD2-His6 tag. Kind of test: LCCA (co-expression, SPR read-out of light chain tags), L1:L2 DNA 1:3 normalised to 1:1; competitor m9.
Test [15] concerns the target D3H44 Fab heavy chain L124E_L143D_K145T, C-terminal ABD2-His6 tag. Described as above.
For test [16], the target named is D3H44 Fab heavy chain L124R_Q179K, C-terminal ABD2-His6 tag. Described as above.
Test [17] concerns the target D3H44 Fab heavy chain L124E_L143D_K145M, C-terminal ABD2-His6 tag. Description: LCCA (co-expression, SPR read-out of light chain tags), L1:L2 DNA 1:3 normalised to 1:1; competitor m10.
The target of test [18] is D3H44 Fab heavy chain L124R_Q179K, C-terminal ABD2-His6 tag. Described as above.
Test [19] deals with D3H44 Fab heavy chain L124E_L143E_K145T, C-terminal ABD2-His6 tag. Kind of test: LCCA set 9316 (co-expression; SPR read-out of light-chain tags; L1:L2 DNA 1:3, normalized to 1:1); competing light chain m9.
Test [20] concerns the target D3H44 Fab heavy chain L124E_L143D_K145M, C-terminal ABD2-His6 tag. Description: LCCA (co-expression, SPR read-out of light chain tags), L1:L2 DNA 1:3 normalised to 1:1; competitor m11.
In test [21] the target is D3H44 Fab heavy chain L124E_L143D_K145T, C-terminal ABD2-His6 tag. The test is described as above.
The target of test [22] is D3H44 Fab heavy chain L124R_Q179K, C-terminal ABD2-His6 tag. The test is described as above.
The target in test [23] is D3H44 Fab heavy chain L124E_L143E_K145M, C-terminal ABD2-His6 tag. Kind of test: LCCA set 9259 (co-expression; SPR read-out of light-chain tags; L1:L2 DNA 1:3, normalized to 1:1); competing light chain m10.
The target in test [24] is D3H44 Fab heavy chain L124E_L143D_K145T, C-terminal ABD2-His6 tag. Kind of test: LCCA co-expression, SPR tag read-out; DNA 1:3 norm. to 1:1; competing light chain m8.
Test [25] deals with D3H44 Fab heavy chain L124E_L143E_K145M, C-terminal ABD2-His6 tag. Described as above.
For test [26], the target named is D3H44 Fab heavy chain L124R_Q179K, C-terminal ABD2-His6 tag. The test is described as above.
Test [27] has as its target D3H44 Fab heavy chain L124W_L143F_K145T_Q179E, ABD2-His6 tagged. Description: LCCA, SPR of light chain tags; L1:L2 DNA 1:3 normalized to 1:1; competing light chain m14.
Test [28] deals with D3H44 Fab heavy chain L124A_L143F_Q179K, ABD2-His6 tagged. The test is described as above.
The target of test [29] is D3H44 Fab heavy chain L124W_L143E_K145T_Q179E, ABD2-His6 tagged. Described as above.
For test [30], the target named is D3H44 Fab heavy chain L124A_Q179K, ABD2-His6 tagged. The test is described as above.
For test [31], the target named is D3H44 Fab heavy chain L124A_L143F_Q179K, ABD2-His6 tagged. Description: LCCA, SPR of light chain tags; L1:L2 DNA 1:9 normalized to 1:1; competing light chain m13.
Test [32] addresses D3H44 Fab heavy chain L124W_L143E_K145T_Q179E, ABD2-His6 tagged. The test is described as above.
Test [33] concerns the target D3H44 Fab heavy chain L124A_L143F_Q179K, ABD2-His6 tagged. Kind of test: LCCA, SPR of light chain tags; L1:L2 DNA 1:3 normalized to 1:1; competing light chain m13.
Test [34] shares this target. Description: LCCA, SPR of light chain tags; L1:L2 DNA 1:3 normalized to 1:1; competing light chain m12.
Test [35] concerns the target D3H44 Fab heavy chain L124W_L143E_K145T_Q179E, ABD2-His6 tagged. Described as above.
The target is the same in test [36]. Description: LCCA, SPR of light chain tags; L1:L2 DNA 1:9 normalized to 1:1; competing light chain m12.
Test [37] deals with D3H44 Fab heavy chain L124W_L143F_K145T_Q179E, ABD2-His6 tagged. Kind of test: LCCA, SPR of light chain tags; L1:L2 DNA 1:3 normalized to 1:1; competing light chain m15.
Test [38] shares this target. Description: LCCA, SPR of light chain tags; L1:L2 DNA 1:3 normalized to 1:1; competing light chain m12.
The target of test [39] is tissue factor (TF) antigen (UniProt P13726). Description: SPR (ProteOn XPR36), Fab captured on anti-penta His, TF injected at 0.74-60 nM, 1:1 model; median.
Test [40] has the same target. Kind of test: SPR (ProteOn XPR36), Fab captured on anti-penta His, TF injected, 1:1 model.

On to “D3H44 Fab heavy chain Q39E_L143E_K145T_H172R_Q179E”, for which the H1L1:H1L2 normalized median ratio stood at 5% in test [1], 95% in test [2], 3% in test [3] and 97% in [4]. Moreover, in test [2], the H1L1:H1L2 normalized median scalar value ln(r1/f1) was determined as 2.96.

For the substance “D3H44 light chain Q124E_V133G_S176D_T178E_T180E, N-terminal HA or FLAG tag”, the H2L2:H2L1 normalized median ratio (H2L2 part) in [5] is 92%; in test [10] it was 82%; in test [13], 92%. In addition, the H1L1:H1L2 normalized median ratio (H1L2 part) was determined as 12% in [6]; 16% in test [11]; 5% in test [12]; 12% in test [19]; 16% in [23]. Moreover, the H1L1:H1L2 normalized median ratio (% (ratio normalized to 100)) in test [7] was determined as 8; in [8], 5; in test [24], 8; in test [25], 5. Further, the H2L2:H2L1 normalized median ratio (% (ratio normalized to 100)) in test [9] and in test [26] was 92 in each case. For the same substance, the H1L1:H1L2 normalized median ratio in test [14] came to 8%; in test [15] it was 8%; in [17], 9%; in test [20], 10%; in [21], 11%. For the same substance, the H2L2:H2L1 normalized median ratio in test [16] turned out to be 92%; in test [18], 92%; in test [22], 93%.

“D3H44 light chain Q124E_V133W_S176T_T178E_T180E, HA or FLAG tagged”: the H2L2:H2L1 normalized median ratio in test [27] worked out at 30%; in [29], 22%; in [32] it was 8%. Further, the H1L1:H1L2 normalized median ratio in test [28] stood at 97%; in test [30], 97%; in test [33] it was 95%. For the same substance, the H1L1:H1L2 normalized median scalar value ln(r1/f1) in test [28] came to 3.61; in test [30], 3.59; in test [31], 2.69; in [33], 2.88.

As for “D3H44 light chain Q124K_V133A_S176T_T178R, HA or FLAG tagged”, in [34], the H1L1:H1L2 normalized median ratio was found to be 5%. The H2L2:H2L1 normalized median ratio was 89% in test [35] and 92% in [36].

Turning to “D3H44 light chain S131K_V133A_S176T_T178L, HA or FLAG tagged”, the H2L2:H2L1 normalized median ratio is 69% in test [37], 70% in test [38] and 78% in [35].

As a reminder, the Kd is the free concentration of one partner at which half of the binding sites on the other are occupied at equilibrium, for simple one-to-one binding. In [39], “wild-type D3H44 Fab heterodimer constructs (Fab constructs containing HA tag or FLAG tag)” yielded a Kd of 150 pM. Further, the fold difference between the maximum and minimum KD values in [40] stood at 2.6 fold.

(Values after patent US11306156.)
